The source of these data is patent US20120058906A1 (published 2012).

Assay [1] addresses T1, rHuman ErbB2/Fc Chimera, CF (R&D Systems Cat#1129-ER) (human, UniProt P04626 23-652).
T1 construct: Bought Fc chimera; also called HER2/neu; Fc part of the bought chimera not given
The assay is described as follows: MSD ECL multi-spot, Fab 0.74 uM, blank 692.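 Also: blank spot per well as comparator with Hit at signal to blank ratio of 4 or more.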

The target of assay [2] is T2, rHuman Erythropoietin R/Fc Chimera, CF (R&D Systems Cat#963-ER) (human, UniProt P19235 25-250).
T2 construct: Bought Fc chimera; also called EPO R/Fc; EPOR; Fc part of the bought chimera not given
T2 sequence: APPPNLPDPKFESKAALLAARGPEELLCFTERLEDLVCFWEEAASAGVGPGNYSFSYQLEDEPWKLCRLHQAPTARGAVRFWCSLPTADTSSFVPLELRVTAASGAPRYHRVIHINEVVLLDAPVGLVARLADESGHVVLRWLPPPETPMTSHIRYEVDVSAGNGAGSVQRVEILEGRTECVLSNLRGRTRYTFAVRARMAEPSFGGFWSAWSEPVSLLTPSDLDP
The assay is described as follows: MSD ECL multi-spot, Fab 0.74 uM, blank 692.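 Also: blank spot per well as comparator with Hit at signal to blank ratio of 4 or more.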

The target of assay [3] is T3, rHuman Notch-1/Fc Chimera, CF (R&D Systems Cat#3647-TK) (human, UniProt P46531 19-526).
T3 construct: Bought Fc chimera; Fc part of the bought chimera not given
The assay is described as follows: MSD ECL multi-spot, Fab 0.74 uM, blank 692.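 Also: blank spot per well as comparator with Hit at signal to blank ratio of 4 or more.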

The target of assay [4] is T4, rHuman CD44/Fc Chimera, CF (R&D Systems Cat#3660-CD) (human, UniProt P16070 21-220).
T4 construct: Bought Fc chimera; Fc part of the bought chimera not given
As to the kind of experiment: MSD ECL multi-spot, Fab 0.74 uM, blank 692.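 Also: blank spot per well as comparator with Hit at signal to blank ratio of 4 or more.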

Assay [5] concerns the target T5, rHuman P-Cadherin/Fc Chimera, CF (R&D Systems Cat#861-PC) (human, UniProt P22223 108-654).
T5 construct: Bought Fc chimera; Fc part of the bought chimera not given
As to the kind of experiment: MSD ECL multi-spot, Fab 0.74 uM, blank 692.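 Also: blank spot per well as comparator with Hit at signal to blank ratio of 4 or more.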

Assay [6] addresses T6, Recombinant Human DLL4 (R&D Systems Cat#1506-D4/CF) (human, UniProt Q9NR61 27-524).
T6 construct: Bought recombinant protein; also called rHuman DLL4; delta-like protein 4
As to the kind of experiment: MSD ECL multi-spot, Fab 0.74 uM, blank 692.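 Also: blank spot per well as comparator with Hit at signal to blank ratio of 4 or more.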

Assay [7] has as its target T7, rHuman HGF R/c-MET/Fc Chimera, CF (R&D Systems Cat#358-MT/CF) (human, UniProt P08581 25-932).
T7 construct: Bought Fc chimera; also called HGF R/Fc; Fc part of the bought chimera not given
As to the kind of experiment: MSD ECL multi-spot, Fab 0.74 uM, blank 692.

The target of assay [8] is T8, rHuman IGF-1 sR (insulin-like growth factor-1 soluble receptor), CF (R&D Systems Cat#391-GR) (human, UniProt P08069 31-932).
T8 construct: Bought soluble receptor; also called IGF-R1
The assay is described as follows: MSD ECL multi-spot, Fab 0.74 uM, blank 692.

Assay [9] concerns the target T9, rHuman EGF R/Fc Chimera, CF (R&D Systems Cat#344-ER) (human, UniProt P00533 25-645).
T9 construct: Bought Fc chimera; Fc part of the bought chimera not given
The assay is described as follows: MSD ECL multi-spot, Fab 0.74 uM, blank 692.

Assay [10] has as its target T10, rHuman Erythropoietin R/Fc Chimera, CF (R&D Systems, Cat#963-ER) (human, UniProt P19235 25-250).
T10 construct: Bought chimera; also called EPO R/Fc; Epo R; Fc part of the bought chimera not given
T10 sequence: T2 sequence
As to the kind of experiment: ECL (MSD) Fab titration; binding affinity estimated from the 50% binding signal.

Assay [11] concerns the target T11, rHuman Erythropoietin R/Fc Chimera, CF (R&D Systems Cat#963-ER) (human, UniProt P19235 25-250).
T11 construct: Bought Fc chimera; also called EPO R/Fc; Epo R; Fc part of the bought chimera not given
T11 sequence: T2 sequence
As to the kind of experiment: ECL (MSD multi-spot), Fab 58.1 nM; blank 225.

For assay [12], the target named is T12, rHuman Notch-1/Fc Chimera, CF (R&D Systems Cat#3647-TK) (human, UniProt P46531 19-526).
T12 construct: Bought Fc chimera; Fc part of the bought chimera not given
The assay is described as follows: ECL (MSD multi-spot), Fab 58.1 nM; blank 225.

The target of assay [13] is T13, rHuman CD44/Fc Chimera, CF (R&D Systems Cat#3660-CD) (human, UniProt P16070 21-220).
T13 construct: Bought Fc chimera; Fc part of the bought chimera not given
As to the kind of experiment: ECL (MSD multi-spot), Fab 58.1 nM; blank 225.

In assay [14] the target is T14, Recombinant Human DLL4 (R&D Systems Cat#1506-D4/CF) (human, UniProt Q9NR61 27-524).
T14 construct: Bought recombinant protein; also called delta-like protein 4
The assay is described as follows: ECL (MSD multi-spot), Fab 58.1 nM; blank 225.

Assay [15] addresses T15, rHuman ErbB2/Fc Chimera, CF (R&D Systems Cat#1129-ER) (human, UniProt P04626 23-652).
T15 construct: Bought Fc chimera; also called human epidermal growth factor 2 receptor; HER2/neu; Fc part of the bought chimera not given
As to the kind of experiment: ECL (MSD multi-spot), Fab 58.1 nM; blank 225.

Assay [16] deals with T11, rHuman Erythropoietin R/Fc Chimera, CF …. As to the kind of experiment: ECL (MSD multi-spot), Fab 232.5 nM; blank 460.
Assay [17] has as its target T12, rHuman Notch-1/Fc Chimera, CF (R&D …). The assay is described as follows: ECL (MSD multi-spot), Fab 232.5 nM; blank 460.
Assay [18] has as its target T13, rHuman CD44/Fc Chimera, CF (R&D Systems …). The assay is described as follows: ECL (MSD multi-spot), Fab 232.5 nM; blank 460.
The target in assay [19] is T14, Recombinant Human DLL4 (R&D Systems …). The assay is described as follows: ECL (MSD multi-spot), Fab 232.5 nM; blank 460.
Assay [20] concerns the target T15, rHuman ErbB2/Fc Chimera, CF (R&D …). As to the kind of experiment: ECL (MSD multi-spot), Fab 232.5 nM; blank 460.
Assay [21] addresses T11, rHuman Erythropoietin R/Fc Chimera, CF …. The assay is described as follows: ECL (MSD multi-spot), Fab 930 nM; blank 1206.
Assay [22] addresses T12, rHuman Notch-1/Fc Chimera, CF (R&D …). The assay is described as follows: ECL (MSD multi-spot), Fab 930 nM; blank 1206.
The target in assay [23] is T13, rHuman CD44/Fc Chimera, CF (R&D Systems …). The assay is described as follows: ECL (MSD multi-spot), Fab 930 nM; blank 1206.
The target of assay [24] is T14, Recombinant Human DLL4 (R&D Systems …). As to the kind of experiment: ECL (MSD multi-spot), Fab 930 nM; blank 1206.
The target in assay [25] is T15, rHuman ErbB2/Fc Chimera, CF (R&D …). The assay is described as follows: ECL (MSD multi-spot), Fab 930 nM; blank 1206.
The target in assay [26] is T11, rHuman Erythropoietin R/Fc Chimera, CF …. The assay is described as follows: ECL (MSD multi-spot), Fab 14.5 nM; blank 117.
The target in assay [27] is T12, rHuman Notch-1/Fc Chimera, CF (R&D …). The assay is described as follows: ECL (MSD multi-spot), Fab 14.5 nM; blank 117.
For assay [28], the target named is T13, rHuman CD44/Fc Chimera, CF (R&D Systems …). As to the kind of experiment: ECL (MSD multi-spot), Fab 14.5 nM; blank 117.
For assay [29], the target named is T14, Recombinant Human DLL4 (R&D Systems …). As to the kind of experiment: ECL (MSD multi-spot), Fab 14.5 nM; blank 117.
The target of assay [30] is T15, rHuman ErbB2/Fc Chimera, CF (R&D …). The assay is described as follows: ECL (MSD multi-spot), Fab 14.5 nM; blank 117.
Assay [31] concerns the target T3, rHuman Notch-1/Fc Chimera, CF (R&D …). The assay is described as follows: MSD ECL multi-spot, Fab 0.43 uM, blank 879.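 Also: blank spot per well as comparator with Hit at signal to blank ratio of 4 or more.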
The target of assay [32] is T6, Recombinant Human DLL4 (R&D Systems …). The assay is described as follows: MSD ECL multi-spot, Fab 0.43 uM, blank 879.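 Also: blank spot per well as comparator with Hit at signal to blank ratio of 4 or more.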
In assay [33] the target is T8, rHuman IGF-1 sR (insulin-like growth …). As to the kind of experiment: MSD ECL multi-spot, Fab 0.43 uM, blank 879.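 Also: blank spot per well as comparator with Hit at signal to blank ratio of 4 or more.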

B1: Fab VH1-46_IGHD3-10*01_IGHJ4*01 & B3_IGKJ1*01 (Fab, V domains shown)
VH: QVQLVQSGAEVKKPGASVKVSCKASGYTFTSYYMHWVRQAPGQGLEWMGIINPSGGSTSYAQKFQGRVTMTRDTSTSTVYMELSSLRSEDTAVYYCAREYYYGSGSYYNDYFDYWGQGTLVTVSS
VL: not shown
notes: Expressed in E. coli as Fab: heavy chain with CH1 plus Flag and His tags from Plasmid A, kappa light chain constant region from Plasmid C; also called Fab No. 5
B1: the ECL signal in [1] came to 562; in [2], 4110; in assay [3] it was 980; in [4] it was 682; in [5], 1160; in [6], 1000. Also, the results for the ECL signal in assay [7], in [8] and in [9] were 633, 593 and 652, respectively.

B2: Fab VH1-46_IGHD3-10*01_IGHJ4*01 & B3_IGKJ1*01 (Fab, V domains shown)
VH: B1 VH
VL: not shown
notes: Fab from E. coli; VH joined to CH1 with Flag and His tags (Plasmid A), VL to kappa CL (Plasmid C)
As to B2, in assay [10], the Kd was around 100 nM.

B3: Fab VH1-46_IGHD6-13*01_IGHJ4*01 & O1_IGKJ1*01 (Fab, V domains shown)
VH: QVQLVQSGAEVKKPGASVKVSCKASGYTFTSYYMHWVRQAPGQGLEWMGIINPSGGSTSYAQKFQGRVTMTRDTSTSTVYMELSSLRSEDTAVYYCAREGYSSSWYDYFDYWGQGTLVTVSS
VL: DIVMTQTPLSLPVTPGEPASISCRSSQSLLDSDDGNTYLDWYLQKPGQSPQLLIYTLSYRASGVPDRFSGSGSGTDFTLKISRVEAEDVGVYYCMQRIEFPSWTFGQGTKVEIK
notes: Tested as a Fab expressed in E. coli: heavy chain with CH1 plus Flag and His tags from Plasmid A, kappa constant region from Plasmid C
For B3, the ECL signal came to 829 ECL signal in [11]; 388 ECL signal in assay [12]; 375 ECL signal in assay [13]; 1880 ECL signal in assay [14]; 322 ECL signal in assay [15]; 1470 ECL signal in [16]. Further, the ECL signal in assay [17] was determined as 778 ECL signal; in assay [18] it was 607 ECL signal; in assay [19], 3590 ECL signal; in assay [20], 779 ECL signal; in [21], 3010 ECL signal; in [22], 2210 ECL signal. Moreover, the ECL signal turned out to be 1920 ECL signal in [23]; 8160 ECL signal in assay [24]; 2220 ECL signal in assay [25]; 660 ECL signal in assay [26]; 317 ECL signal in assay [27]; 212 ECL signal in [28]. Also, the values for the ECL signal in assay [29] and in assay [30] were 1150 ECL signal and 274 ECL signal, respectively.

B4: Fab VH1-46_IGHD6-13*01_IGHJ4*01 & B3_IGKJ1*01 (Fab, V domains shown)
VH: B3 VH
VL: not shown
notes: Expressed in E. coli as Fab: heavy chain with CH1 plus Flag and His tags from Plasmid A, kappa light chain constant region from Plasmid C; also called Fab No. 6
On to B4, for which the ECL signal in assay [31] was 1790; in assay [32] it was 2540; in assay [33], 1140.
